In patent publication US20100168020A1 (Amgen, published 2010):

T1: myostatin (human, UniProt O14793 267-375)
T1 sequence: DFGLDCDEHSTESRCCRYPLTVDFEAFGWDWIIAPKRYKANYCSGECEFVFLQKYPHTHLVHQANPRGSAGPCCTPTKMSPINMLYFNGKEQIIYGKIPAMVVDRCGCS

T2: activin A (Homo sapiens (Human), UniProt P08476 311-426)
T2 sequence: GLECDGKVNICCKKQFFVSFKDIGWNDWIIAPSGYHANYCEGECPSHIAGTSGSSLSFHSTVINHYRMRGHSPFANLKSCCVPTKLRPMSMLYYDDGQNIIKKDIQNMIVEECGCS


Assays:
[1] = target: GDF-11 (Homo sapiens (Human)) (UniProt O95390); assay: KinExA solution equilibrium, ligand-coated beads, Cy5 anti-human Fc detection
[2] = target: T1, myostatin; assay: cell-based or functional assay
[3] = target: T2, activin A; assay: cell-based or functional assay
[4] = target: T1, myostatin; assay: KinExA solution equilibrium, ligand-coated beads, Cy5 anti-human Fc detection
Description: (§1) Solution-based equilibrium-binding assays using KinExA™ technology (Sapidyne Instruments, Inc.) were used to determine the dissociation equilibrium (KD) of ligand binding to ActRIIB-Fc polypeptides. UltraLink Biosupport beads (Pierce) was pre-coated with about 100 μg/ml each of myostatin, GDF-11, and activin A overnight, and then blocked with BSA. 1 pM and 3 pM of ActRIIB-Fc (E28W) (SEQ ID NO: 21) and svActRIIB-Fc (E28W, S44T) (SEQ ID NO: 10) samples were incubated with various concentrations (0.7 fM to 160 pM) of myostatin, activin A, and GDF-11 respectively in sample buffer at room temperature for 8 hours before being run through the ligand-coated beads. The amount of the bead-bound soluble receptor was quantified by fluorescent (Cy5) labeled goat anti-human-Fc antibody at 1 mg/ml in superblock. The binding signal is proportional to the concentration of free soluble receptor at equilibrium with a given myostatin, activin A, or GDF-11 concentration. KD was obtained from the nonlinear regression of the competition curves using a dual-curve one-site homogeneous binding model provided in the KinEx A™ software (Sapidyne Instruments, Inc.).

[5] = target: T2, activin A; assay: as above
Description: as §1

[6] = target: GDF-11 (Homo sapiens (Human)) (UniProt O95390); assay: cell-based or functional assay

Kd [1] [pM]	IC50, luciferase activity of C2C12/pMARE-luc reporter cells at 4 nM ligand [2] [nM]	IC50, luciferase activity of C2C12/pMARE-luc reporter cells at 4 nM ligand [3] [nM]	Kd [4] [pM]	Kd [5] [pM]	IC50, luciferase activity of C2C12/pMARE-luc reporter cells at 4 nM ligand [6] [nM]	Binder
0.1	0.95	3.2	0.1	0.2	2.4	ActRIIB-Fc (E28W) (Fc fusion, also called ActRIIB-IgG2Fc (E28W); ActRIIB-IgG Fc (E28W)) ETRWCIYYNANWELERTNQSGLERCEGEQDKRLHCYASWRNSSGTIELVKKGCWLDDFNCYDRQECVATEENPQVYFCCCEGNFCNERFTHLPEAGGPEVTYEPPPTAPTGGGGSVECPPCPAPPVAGPSVFLFPPKPKDTLMISRTPEVTCVVVDVSHEDPEVQFNWYVDGVEVHNAKTKPREEQFNSTFRVVSVLTVVHQDWLNGKEYKCKVSNKGLPAPIEKTISKTKGQPREPQVYTLPPSREEMTKNQVSLTCLVKGFYPSDIAVEWESNGQPENNYKTTPPMLDSDGSFFLYSKLTVDKSRWQQGNVFSCSVMHEALHNHYTQKSLSLSPGK
0.1	1.07	3.6	0.1	0.1	2.4	svActRIIB-Fc (E28W, S44T) (Fc fusion, Made in 293-6E or CHO cells; also called svActRIIB-IgG2Fc (E28W, S44T); svActRIIB-IgG Fc (E28W, S44T)) ETRWCIYYNANWELERTNQTGLERCEGEQDKRLHCYASWRNSSGTIELVKKGCWLDDFNCYDRQECVATEENPQVYFCCCEGNFCNERFTHLPEAGGPEVTYEPPPTAPTGGGGSVECPPCPAPPVAGPSVFLFPPKPKDTLMISRTPEVTCVVVDVSHEDPEVQFNWYVDGVEVHNAKTKPREEQFNSTFRVVSVLTVVHQDWLNGKEYKCKVSNKGLPAPIEKTISKTKGQPREPQVYTLPPSREEMTKNQVSLTCLVKGFYPSDIAVEWESNGQPENNYKTTPPMLDSDGSFFLYSKLTVDKSRWQQGNVFSCSVMHEALHNHYTQKSLSLSPGK
